Reference: paper PMC11972402 (Nature Communications, 2025)

Biological target: T1, Saccharomyces cerevisiae Rat1-Rai1 complex (Saccharomyces cerevisiae, UniProt Q02792 1-981; P53063 1-387)
T1 sequence (looked up) 1: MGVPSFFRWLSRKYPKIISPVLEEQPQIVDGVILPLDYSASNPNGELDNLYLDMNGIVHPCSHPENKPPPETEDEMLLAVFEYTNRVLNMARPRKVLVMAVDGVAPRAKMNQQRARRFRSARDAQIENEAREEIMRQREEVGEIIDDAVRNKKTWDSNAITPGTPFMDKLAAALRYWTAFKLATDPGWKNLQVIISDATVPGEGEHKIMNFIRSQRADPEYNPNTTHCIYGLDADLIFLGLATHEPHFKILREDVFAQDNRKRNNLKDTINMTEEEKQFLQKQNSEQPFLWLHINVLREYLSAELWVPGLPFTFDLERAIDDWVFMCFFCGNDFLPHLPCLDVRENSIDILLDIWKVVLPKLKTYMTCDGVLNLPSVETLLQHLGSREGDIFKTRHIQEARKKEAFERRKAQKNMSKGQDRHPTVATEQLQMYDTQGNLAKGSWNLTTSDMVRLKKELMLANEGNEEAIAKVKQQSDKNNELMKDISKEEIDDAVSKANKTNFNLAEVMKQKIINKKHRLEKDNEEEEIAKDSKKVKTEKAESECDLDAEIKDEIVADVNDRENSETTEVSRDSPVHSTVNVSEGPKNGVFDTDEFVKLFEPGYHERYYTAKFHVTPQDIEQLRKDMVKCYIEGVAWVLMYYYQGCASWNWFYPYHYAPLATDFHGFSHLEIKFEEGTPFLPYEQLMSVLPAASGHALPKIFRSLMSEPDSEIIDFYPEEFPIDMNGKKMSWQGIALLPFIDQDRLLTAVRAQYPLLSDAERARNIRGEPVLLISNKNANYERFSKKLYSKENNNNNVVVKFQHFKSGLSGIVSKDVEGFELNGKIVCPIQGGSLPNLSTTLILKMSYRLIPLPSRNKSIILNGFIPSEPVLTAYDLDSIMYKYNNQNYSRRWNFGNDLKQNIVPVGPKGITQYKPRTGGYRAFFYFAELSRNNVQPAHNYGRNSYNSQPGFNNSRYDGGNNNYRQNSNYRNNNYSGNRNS
T1 sequence (looked up) 2: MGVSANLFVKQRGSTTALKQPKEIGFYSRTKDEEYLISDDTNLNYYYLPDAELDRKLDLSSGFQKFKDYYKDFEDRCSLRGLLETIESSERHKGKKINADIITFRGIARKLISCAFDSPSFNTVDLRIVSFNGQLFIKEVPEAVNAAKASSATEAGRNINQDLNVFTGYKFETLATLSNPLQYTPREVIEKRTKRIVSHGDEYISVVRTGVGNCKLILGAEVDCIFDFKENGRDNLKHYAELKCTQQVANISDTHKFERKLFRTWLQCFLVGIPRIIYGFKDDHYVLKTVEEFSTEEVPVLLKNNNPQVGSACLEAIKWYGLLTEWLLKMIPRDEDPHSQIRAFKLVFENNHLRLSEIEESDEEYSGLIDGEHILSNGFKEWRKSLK
Test: pull-down

binding result: binds
Binder: SAKDPSRLNKNVDEDNIIPTYEVGDGDDDD (domain or fragment, Saccharomyces cerevisiae, UniProt Q05543 243-272, looked up) [N-terminal 6×His-MBP tagged S. cerevisiae Rtt103 RIS (243-272) wild-type]
